In article PMC6962361:

Target: Fpr C151Stop (Fowlpox virus) (UniProt A0A385H9X4)
Assay: fluorescence polarization
Conditions: FP: 25 mM Tris-HCl pH 7.4, 100 mM NaCl, 5 mM EDTA, 1% glycerol, 10 nM DNA, 37 C 20 min, protein as dimer; NMR: 25 mM L-Arg, 25 mM L-Glu, 303 K

Sequence “CGGAGGCCTAGCGTCCGGAATTCTCGTTTCGAGAATTCCGGATTAGGGATCCGCG / CGCGGATCCCTAAGCTCCATCGATCGTTTCGATCGATGGAGCCGCTAGGCCTCCG [F13/13HJ (FHJ13/13)]” has a Kd of 168 nM.
